Reference: patent publication US7615610B2, “Modified trafficking patterns for arrestin and G-protein-coupled receptors via arrestin-ubiquitin chimera” (Duke University, priority 2003, dated 2009)

Experiments:
β2AR [1] = molecular target: T1, β2AR (Homo sapiens, UniProt P07550); test: Receptor internalization (loss of cell surface receptors, flow cytometry), β2AR
β2AR [2] = molecular target: T1, β2AR
β2AR [3] = molecular target: T1, β2AR; test: Confocal microscopy of arrestin trafficking with β2AR in HEK-293 cells; assay type: cell-based; design: expressed in transfected cells; host or cells: HEK-293; details: for colocalization with internalized β2AR in endocytic vesicles: fixed HEK-293 cells, HA-β2AR, 15 min isoproterenol; for distribution of YFP fluorescence after isoproterenol: live HEK293 cells over expressing β2AR, 10 μM isoproterenol, 15-30 min
Description: Cells were starved for one hour in serum free media. […] Shown are representative confocal images of YFP-fluorescence followed in the same HEK-293 cells treated for 2, 15 and 30 min at 37° C.
HEK-293 cells were transiently transfected with HA-β2AR and YFP-βarrestin2 (A) or YFP-β-arrestin2-Ub (B). After isoproterenol treatment or not the cells were fixed, permeabilized and stained for receptor with the primary antibody 12CA5 and secondary antibody anti mouse IgG conjugated to Texas Red. Shown are confocal images where receptor is visualized in the Red channels and β-arrestin in the green channels. Colocalization of two proteins is seen as yellow in the overlay. The results are representative of three independent experiments.
HEK-293 cells on 10 cm dishes were transiently transfected with HA-β2AR, HA-V2R, HAβ2ARV2CT, or HAV2Rβ2CT, along with β-arr2-GFP, or YFP-βarrestin2, or YFP-β-arrestin2-Ub. Twenty-four hours post-transfection cells were plated on collagen-coated 35 mm glass bottom plates. Cells were starved for at least 2 hrs in serum free medium prior to stimulation. After stimulation cells were fixed with 4% paraformaldehyde. For visualizing HA-tagged receptors, fixed cells were permeabilized with 0.01% Triton in PBS containing 2% BSA for 20 min and incubated at room temperature with 12CA5 antibody at 1:500 dilution. The secondary antibody, antimouse IgG conjugated to TexasRed, followed this. Antibody incubations were done for one hour followed by repeated washes using PBS. Cells expressing low and equivalent levels of the fluorescent proteins were carefully selected to examine YFP-β-arrestins. Confocal images were obtained on Zeiss LSM510 laser scanning microscope using dual excitation (488, 568 nm) and emission (515-540 nm GFP, YFP; 590-610 nm, Texas red) filter sets. Live images were acquired using a heated (37° C.) microscope stage and collected sequentially using single line excitation (488 nm).

β2AR [4] = molecular target: T1, β2AR; test: Coimmunoprecipitation of YFP-β-arrestins with Flag-β2AR in COS-7 cells; assay type: binding; design: expressed in transfected cells; details: Flag-β2AR IP, 15 minutes of agonist treatment
Text: A) Stability of the ubiquitin chimera in COS-7 cells. […] The bands on the autorad were quantitated using Fluorimager and graphically represented in the figure. The zero time point represents 100% protein. The graph is an average of three independent experiments. B) Interaction of β-arrestin2-Ub chimera with β2AR. […] After stimulation or not the receptor was immunoprecipitated with anti-Flag beads in the absence (left panels) or presence (right panels) of the inhibitor NEM; the IP was blotted for YFP-β-arrestins with a monoclonal antibody to GFP (top panel). […] The blots are representative of similar blots from three independent experiments.
Immunoprecipitation and Irnmunoblofting—To detect ubiquitinated β-arrestin2, β-arrestin2 with a C-terminal Flag epitope was transiently transfected into COS-7 cells. Cells were serum starved for at least 2 hrs and then stimulated or not for the stipulated times with the appropriate agonists. Cells were solubilized in a lysis buffer (LB) containing 50 mM Hepes (pH7.5), 0.5% NP40, 250 mM NaCl, 2 mM EDTA, 10% (vlv) glycerol, 1 mM sodium orthovanadate, 1 mM sodium fluoride, 1 mM phenylmethylsulfonyl fluoride, leupeptin (5 μg/ml) aprotinin (5 μg/ml), pepstatin A (1 μg/ml) benzaminidine (100 μM) 2 μM MG132 and 10 mM NEM. Soluble extracts were mixed with FLAG M2 affinity beads and rotated at 4° C. overnight. […]

V2Rβ2CT = molecular target: T2, V2Rβ2CT (Homo sapiens, UniProt P07550+P30518); test: Confocal microscopy of arrestin trafficking with V2Rβ2CT in HEK-293 cells; assay type: cell-based; details: live HEK-293 cells expressing V2Rβ2CT, 15 min and longer
T2 construct: the first 342 amino acids of the V2R (Met1-Cys342); the last 72 amino acids of the β2AR (Leu342 to Leu 413); expressed in transfected cells; host or cells: HEK-293
Description: Twenty-four hours post-transfection cells were plated on collagen-coated 35 mm glass bottom plates. Cells were starved for at least 2 hrs in serum free medium prior to stimulation. After stimulation cells were fixed with 4% paraformaldehyde. For visualizing HA-tagged receptors, fixed cells were permeabilized with 0.01% Triton in PBS containing 2% BSA for 20 min and incubated at room temperature with 12CA5 antibody at 1:500 dilution. The secondary antibody, antimouse IgG conjugated to TexasRed, followed this. Antibody incubations were done for one hour followed by repeated washes using PBS. Cells expressing low and equivalent levels of the fluorescent proteins were carefully selected to examine YFP-β-arrestins. […] Live images were acquired using a heated (37° C.) microscope stage and collected sequentially using single line excitation (488 nm).

Molecule	reduction of internalization (β2AR [1]; pretreatment of cells with 200 μM MDC, data not shown) [%]	increase in amount of β2AR degradation (β2AR [2])	β2AR internalization (β2AR [1]; HEK293 cells, arrestin overexpressed with Flag-β2AR, 10 μM isoproterenol 30 min, mean±SEM) [%]	colocalization with internalized β2AR in endocytic vesicles (β2AR [3])	distribution of YFP fluorescence after isoproterenol (β2AR [3])	receptor-bound (coimmunoprecipitated) arrestin bands (β2AR [4])	distribution of YFP fluorescence after AVP (V2Rβ2CT)
CN(C)c1cccc2c(S(=O)(=O)NCCCCCN)cccc12 [MDC, monodansylcadaverine]	45	–	–	–	–	–	–
β-arrestin2: wild type β-arrestin2 overexpressed as comparator	–	6-7%	33±1.6	–	–	–	–
YFP-β-arrestin2-Ub: YFP-labelled β-arrestin2-ubiquitin chimera from pEYFPC1 (SEQ ID NOS:1-2)	–	–	–	colocalize with the internalized β2AR	redistribute from the plasma membrane to endocytic vesicles	detectable with the chimeric protein	moved into endocytic vesicles as early as 15 min
YFP-β-arrestin2: wild type β-arrestin2 tagged with YFP, comparator	–	–	–	did not however contain any YFP-β-arrestin2	unaltered at 30 min of isoproterenol treatment	not detectable	–
